The source of these data is paper PMC13480463 (Science translational medicine, 2021).

The target in this test is T1, Fzd3 (receptor of the AP binding assays) (UniProt Q61086 23-666).
T1 sequence (looked up): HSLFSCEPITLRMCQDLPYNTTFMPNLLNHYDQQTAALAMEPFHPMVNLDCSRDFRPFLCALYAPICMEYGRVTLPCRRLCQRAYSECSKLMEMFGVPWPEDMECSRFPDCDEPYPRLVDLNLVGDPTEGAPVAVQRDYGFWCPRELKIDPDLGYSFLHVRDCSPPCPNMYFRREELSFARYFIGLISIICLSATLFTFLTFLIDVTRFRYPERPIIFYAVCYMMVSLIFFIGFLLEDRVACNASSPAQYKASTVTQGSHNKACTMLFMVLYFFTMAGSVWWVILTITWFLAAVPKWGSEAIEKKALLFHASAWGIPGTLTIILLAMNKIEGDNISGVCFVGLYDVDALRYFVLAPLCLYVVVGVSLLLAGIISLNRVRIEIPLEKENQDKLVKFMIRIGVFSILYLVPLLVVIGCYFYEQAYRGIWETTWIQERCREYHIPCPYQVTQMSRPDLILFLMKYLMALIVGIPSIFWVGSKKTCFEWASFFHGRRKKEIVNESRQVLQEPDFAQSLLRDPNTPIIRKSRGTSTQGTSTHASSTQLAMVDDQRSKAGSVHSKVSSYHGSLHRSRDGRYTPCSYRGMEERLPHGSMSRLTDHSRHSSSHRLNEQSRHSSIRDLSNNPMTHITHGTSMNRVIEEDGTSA
Description: alkaline phosphatase.

B1: AP-tagged TSK protein (TSK-AP) (ligand, mouse, UniProt Q8CBR6 18-354, looked up)
chain: TRPCFPGCQCEEETFGLFDSFSLIRVDCSSLGPHIVPVPIPLDTAHLDLSSNRLETVNESVLAGPGYTTLAGLDLSYNLLTSIMPSAFSRLRYLESLDLSHNGLAALPAEIFTSSPLSDINLSHNRLREVSISAFTTHSQGRALHVDLSHNLIHRLLPHPARASLPAPTIQSLNLSWNRFRAVPDLRDLPLRYLSLDGNPLATINPDAFMGLAGLTHLSLASLQGILHLPPHGFRELPGLQVLDLSGNPKLKWAGAEVFSGLGLLQELDLSGSSLVPLPEMLLHHLPALQSVSVGQDVQCRRLVREGAYHRQPGSSPKVVLHCGDTQESAARGPDIL
Take B1: the Kd (in general, the equilibrium constant for the complex coming apart) was found to be 0.27 nM.
